Test results reported in article PMC6202051, “The DWORF micropeptide enhances contractility and prevents heart failure in a mouse model of dilated cardiomyopathy” (eLife, 2018).
Ends that are not written are not given here. YFP = yellow fluorescent protein

B1: yellow fluorescent protein (YFP)-PLN (natural protein, UniProt P61014 1-52, looked up)
chain: {YFP}-MEKVQYLTRSAIRRASTIEMPQQARQNLQNLFINFCLILICLLLICIIVMLL
modifications: cysteine pairing not given here
notes: phospholamban (PLN); In the PLN-PLN and PLN-DWORF FRET experiments one partner must have carried the donor (Cer); it may be another species (e.g. canine) in the cited FRET work; also called phospholamban; source: AAV-293 cells, transiently transfected, in live cells

What was measured:
[1] = target: mCerulean (Cer)-SERCA2a (UniProt O55143); test: FRET or BRET; progressive acceptor photobleaching of YFP in live transfected AAV-293 cells; donor against acceptor fluorescence, a linear relationship taken as a 1:1 complex
[2] = target: T1, mCerulean (Cer)-SERCA2a (UniProt O55143-2 1-998); test: as above; settings: partners not purified
T1 construct: SERCA2a, the predominant cardiac isoform of the sarco(endo)plasmic reticulum Ca2+-ATPase; also called SR Ca2+-ATPase; source: AAV-293 cells, transiently transfected, in live cells
T1 sequence (O55143 other isoform, or with tags, fused parts or gaps): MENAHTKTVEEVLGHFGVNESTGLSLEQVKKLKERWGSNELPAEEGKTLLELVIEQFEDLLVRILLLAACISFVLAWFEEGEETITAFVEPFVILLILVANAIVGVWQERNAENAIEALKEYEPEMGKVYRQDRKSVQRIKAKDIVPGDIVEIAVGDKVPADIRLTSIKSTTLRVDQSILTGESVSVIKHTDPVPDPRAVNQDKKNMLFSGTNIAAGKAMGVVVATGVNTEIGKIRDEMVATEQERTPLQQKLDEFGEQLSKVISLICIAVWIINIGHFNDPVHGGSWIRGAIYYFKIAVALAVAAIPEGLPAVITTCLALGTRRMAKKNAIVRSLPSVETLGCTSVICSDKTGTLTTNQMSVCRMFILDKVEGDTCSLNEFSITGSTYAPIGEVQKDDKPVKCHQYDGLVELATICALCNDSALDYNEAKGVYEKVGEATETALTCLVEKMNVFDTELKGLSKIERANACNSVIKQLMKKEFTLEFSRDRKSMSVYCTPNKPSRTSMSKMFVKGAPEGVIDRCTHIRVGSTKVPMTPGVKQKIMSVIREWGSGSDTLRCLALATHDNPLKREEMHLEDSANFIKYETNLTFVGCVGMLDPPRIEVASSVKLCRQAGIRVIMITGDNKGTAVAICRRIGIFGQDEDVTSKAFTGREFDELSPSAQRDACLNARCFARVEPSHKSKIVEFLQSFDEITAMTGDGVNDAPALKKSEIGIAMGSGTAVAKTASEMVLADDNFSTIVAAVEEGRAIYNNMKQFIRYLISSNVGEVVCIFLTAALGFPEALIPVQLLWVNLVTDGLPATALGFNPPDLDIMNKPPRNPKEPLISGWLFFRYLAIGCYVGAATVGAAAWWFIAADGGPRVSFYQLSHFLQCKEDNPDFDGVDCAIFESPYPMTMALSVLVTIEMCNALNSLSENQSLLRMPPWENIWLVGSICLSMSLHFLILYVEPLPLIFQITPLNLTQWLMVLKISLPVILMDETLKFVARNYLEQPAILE

Sequence of mCerulean (Cer)-SERCA2a (UniProt O55143) (O55143 other isoform, or with tags, fused parts or gaps): as above

| Molecule | stoichiometry N [1] | stoichiometry N [2] |
| --- | --- | --- |
| yellow fluorescent protein (YFP)-DWORF (peptide) | 1 |  |
| B1 |  | 1 |
